Reference: patent US20050229275A1

Legend:
[1] = target: murine mAbGA733; test: competition ELISA, free GA733 against coated GA733
[2] = target: murine mAbGA733; test: competition ELISA: free GA733 (1-100 nM) varied, constant murine mAbGA733 (0.063 nM), plates coated with GA733
[3] = target: plant produced CO17-1A of Example 9; test: competition ELISA: free GA733 (1-100 nM) varied, constant plant CO17 (1/500 dilution; protein A purified and ammonium sulfate fractionated preparations alike), plates coated with GA733
[4] = target: colorectal cancer-associated antigen (Ag) GA733-2 (UniProt P16422); test: ELISA, leaf extract on plates coated with Ag GA733-2, anti-mouse IgG peroxidase (whole molecule)
[5] = target: colorectal cancer-associated antigen (Ag) GA733-2 (UniProt P16422); test: ELISA, N. benthamiana leaf extract on plates coated with Ag GA733-2, anti-mouse IgG peroxidase (whole molecule or Fc specific)

## colorectal cancer-associated antigen (Ag) GA733-2 (from UniProt P16422 24-265)
[1]
  fold higher antigen concentration for 50% inhibition, against plant expressed CO17-1A: 5 fold
[2]
  IC50: 35 nM
[3]
  IC50: 6.3 nM

B1: plant-produced rAB CO17-1A expressed from AlMV vectors A3a17-1ALC and A3b17-1AHC in Rep plants (antibody, INN chains, looked up, V domains shown)
VH: QVQLQQSGAELVRPGTSVKVSCKASGYAFTNYLIEWVKQRPGQGLEWIGVINPGSGGTNYNEKFKGKATLTADKSSSTAYMQLSSLTSDDSAVYFCARDGPWFAYWGQGTLVTVSA
VL: NIVMTQSPKSMSMSVGERVTLTCKASENVVTYVSWYQQKPEQSPKLLIYGASNRYTGVPDRFTGSGSATDFTLTISSVQAEDLADYHCGQGYSYPYTFGGGTKLEIK
modifications: plant-produced
[4]
  fold OD490 nm over controls (NI, HC, LC): 2 to 3 fold

B2: plant-produced rAb CO17-1A expressed from TMV vectors 30B-17HCK and 30B-17LC in Nicotiana benthamiana (antibody, INN chains, looked up, V domains shown, part only)
VH: B1 VH
VL: B1 VL
modifications: plant-produced, His tag
[5]
  fold O.D.490 over controls (NI, HC, LC): 2 to 3 fold
